{"source": "paper doi:10.1101/2025.11.04.686334", "about": "(2025)", "binders": {"B1": {"name": "FluA-20 mAb (antibody, V domains shown)", "VH": "QVQLEESGPGLVKPSETLSLTCSVSGVSVTSDIYYWTWIRQPPGKGLEWIGYIFYNGDTNYNPSLKSRVTMSIDTSKNEFSLRLTSVTAADTAVYFCARGTEDLGYCSSGSCPNHWGQGTLVTVSS", "VL": "DIVMTQSPSSLSASIGDRVTITCRPSQNIRSFLNWFQHKPGKAPKLLIYAASNLQSGVPSRFSGSGSGTEFTLTIRSLQPEDFATYYCQQSYNTPPTFGQGTKVEIK"}, "B2": {"name": "D2 H1-1/H3-1 mAb (antibody, V domains shown)", "VH": "QVQLVQSGGGLVRPGGSLRLSCAASGFTFSSAWMTWVRQAPGKGLEWVANIKEDGSEKYYVDSVKGRFSISRDNAKNSLYLQISSLRAEDTAVYYCARRFVERLWGQSKPYDAVDIWGQGTMVTVSG", "VL": "DIQMTQSPSSLSASVGDRVTITCRASQSISNYLNWYQQKPGKAPKLLIYVASNLQSGVPSRFSGSGSGTDFALTISSLQPEDFASYYCQQSYSPVTTFGGGTKVEIK"}, "B3": {"name": "S1V2-58 mAb (antibody, V domains shown)", "VH": "QVQLQESGPGLVKPSETLSLTCTVSGGSLSIYYWSWVRQSPGKGLEWIGYISNSGSPTYHPSLKSRVTISLDTSKSQFSLKLTSVTAADTALYFCARGVLEQLAPDFDSYYYGMNVWGQGTTVTVSG", "VL": "DIQMTQSPSSVSASLGDRVTLTCRASQPIRSYLNWYQHKPGLAPKLLVYAVSNLQSGVPSRFSGSGSGTDFTLTVSSLQPEDFATYYCQQSYSTPYTFGQGTRLEIK"}}, "test_in_all_cases": "BLI", "key": {"HA220-M4T": {"target": "HA220-M4T"}, "HA220-4": {"target": "HA220-4"}, "HA220-1": {"target": "HA220-1 (human, UniProt Q9NZ52 16-146)"}}}
{"binder": "B1", "values": [{"measurement": "Kd", "setting": "HA220-M4T", "value": 0.253, "unit": "nM"}, {"measurement": "Kd", "setting": "HA220-4", "value": 110, "unit": "nM"}, {"measurement": "Kd", "setting": "HA220-1", "value": "> 12000", "unit": "nM"}]}
{"binder": "B2", "values": [{"measurement": "Kd", "setting": "HA220-M4T", "value": 2.55, "unit": "nM"}, {"measurement": "koff", "setting": "HA220-M4T", "value": 0.00017, "unit": "s⁻¹"}, {"measurement": "Kd", "setting": "HA220-4", "value": 65, "unit": "nM"}]}
{"binder": "B3", "values": [{"measurement": "Kd", "setting": "HA220-M4T", "value": 10.7, "unit": "nM"}, {"measurement": "koff", "setting": "HA220-M4T", "value": 0.00043, "unit": "s⁻¹"}, {"measurement": "Kd", "setting": "HA220-4", "value": 178, "unit": "nM"}]}
